Experimental data reported in patent publication US10588972B2, “Phthalocyanine probes and uses thereof” (LI-COR, INC., priority 2014, dated 2020).

Key:
Assay type in all cases: cell-based
HTB-186 cells [1] = assay: JC-1 mitochondrial membrane potential assay (Example 10, Table 8); conditions: 32 J/cm^2, probe about 5 hours, 20 hours post irradiation; 700DX-RGD and 700DX-EGF 500 nM
Procedure: (§1) This example illustrates the ability of IRDye® 700DX small molecule conjugates to induce apoptosis in cells, e.g., cancer cells. In this study HTB-186 cells (a desmoplastic cerebellar medulloblastoma cell line) were treated with IRDye® 700DX small molecule conjugates (IRDye® 700DX labeled chlorotoxin, anti-EGFR Affibody®, RGD peptide and EGF ligand). Apoptosis was measured by evaluating caspase 3/7 activity and mitochondrial membrane potential. […]
In this study a mitochondrial membrane potential assay was performed on cells from treatments 1-8 to determine whether the treated cells underwent apoptosis. […] As JC-1 dye accumulated in mitochondria, its fluorescence emission shifts from green (about 529 nm) to red (about 590 nm). The presence of red fluorescence due to JC-1 aggregate formation corresponds to regions of high mitochondrial polarization. Depolarized mitochondria are indicated by green fluorescence of the JC-1 monomers. A detectable decrease in the red/green fluorescence intensity ratio indicates mitochondrial depolarization, and thus, apoptosis. In a membrane potential assay, cells are incubated with the JC-1 dye and fluorescence is detected by, for example, flow cytometry, fluorescence microscopy, and fluorescence-based image cytometry. […]

A431 cells [2] = assay: Photodynamic therapy effect on cell morphology and viability (Example 3); conditions: for effect on cell morphology: probe 0.25 μM
From the text: This example illustrates the effect of photodynamic therapy based on IRDye® 700DX dye conjugates on cell morphology. Other methods for evaluating changes in morphology during the PDT with additional tests of key apoptotic markers including caspase 3/7, annexin-V, vitality %, mitochondrial potential, localization (intracellular/membrane, endosomal, lysosomal), singlet oxygen generation, other radicals, etc. It was critical to identify important parameters for generating reproducible effects including irradiation level, incubation time, probe type and/or required dose to initiate cytotoxicity. By measuring these key indicators the actions of IRDye® 700DX in its ability to induce cytotoxicity was defined.
FIGS. 6A-6B provide images of the controls which were A431 cells with no irradiation (NI) or with irradiation (I). The probe dose for the respective treatments was 0.25 μM and irradiation level was 16 J/cm^2. […] These are key features of cells undergoing apoptosis and/or necrosis.

HTB-186 cells [3] = assay: Caspase 3/7 assay (Example 10, Table 8); conditions: 32 J/cm^2, probe about 5 hours, 20 hours post irradiation; 700DX-RGD and 700DX-EGF 500 nM
Procedure: as §1
The caspase 3/7 assay was used to measure caspase 3/7 activity in the cells from the treatments listed above. […] Upon activation, the caspases cleave the substrate, and in turn, a fluorescence signal is emitted. […] The fluorescence can be detected by, for example, flow cytometry, fluorescence microscopy, and fluorescence-based image cytometry.
To determine whether the treated cells are undergoing apoptosis, a caspase 3/7 assay and mitochondrial potential assay were performed. […] Table 8 below provides cells number, % viability, JC-1% shift, and % late apoptotic and dead cells as determined by caspase 3/7 assay.

A431 cells [4] = assay: Caspase 3/7 assay, doses of IRDye 700DX-labeled EGF (Table 4); conditions: Irradiation about 32 J/cm^2
Procedure: A431 cells were treated with IRDye® 700DX-labeled EGF at a concentration of about 0.1-1 μM for about 8 minutes and irradiated at about 32 J/cm^2.
Briefly, 150,000 cells were plated and incubated overnight at 37° C., 5% CO2. About 1 ml of the probe was added to the appropriate treatments. The cells were rinsed after the incubation period and imaged. The cells were irradiated with a small LED apparatus. The cells were further incubated at 37° C., 5% CO2, and then imaged at 2-3 hours post irradiation. The cells were then harvested and resuspended in 250 μl PBS. The cells were counted in NC-100™ NucleoCounter® (ChemoMetec A/S; Allerod, Denmark). The cells were analyzed according to manufacturer's protocol to perform the caspase3/7 assay (ImmunoChemistry Technologies, LCC, Bloomington, Minn.). NC indicates negative control, e.g., no probe.

B1: 700DX-EGF (conjugate, UniProt P01133 23-1207, looked up)
Pro-epidermal growth factor: PQHWSCPEGTLAGNGNSTCVGPAPFLIFSHGNSIFRIDTEGTNYEQLVVDAGVSVIMDFHYNEKRIYWVDLERQLLQRVFLNGSRQERVCNIEKNVSGMAINWINEEVIWSNQQEGIITVTDMKGNNSHILLSALKYPANVAVDPVERFIFWSSEVAGSLYRADLDGVGVKALLETSEKITAVSLDVLDKRLFWIQYNREGSNSLICSCDYDGGSVHISKHPTQHNLFAMSLFGDRIFYSTWKMKTIWIANKHTGKDMVRINLHSSFVPLGELKVVHPLAQPKAEDDTWEPEQKLCKLRKGNCSSTVCGQDLQSHLCMCAEGYALSRDRKYCEDVNECAFWNHGCTLGCKNTPGSYYCTCPVGFVLLPDGKRCHQLVSCPRNVSECSHDCVLTSEGPLCFCPEGSVLERDGKTCSGCSSPDNGGCSQLCVPLSPVSWECDCFPGYDLQLDEKSCAASGPQPFLLFANSQDIRHMHFDGTDYGTLLSQQMGMVYALDHDPVENKIYFAHTALKWIERANMDGSQRERLIEEGVDVPEGLAVDWIGRRFYWTDRGKSLIGRSDLNGKRSKIITKENISQPRGIAVHPMAKRLFWTDTGINPRIESSSLQGLGRLVIASSDLIWPSGITIDFLTDKLYWCDAKQSVIEMANLDGSKRRRLTQNDVGHPFAVAVFEDYVWFSDWAMPSVMRVNKRTGKDRVRLQGSMLKPSSLVVVHPLAKPGADPCLYQNGGCEHICKKRLGTAWCSCREGFMKASDGKTCLALDGHQLLAGGEVDLKNQVTPLDILSKTRVSEDNITESQHMLVAEIMVSDQDDCAPVGCSMYARCISEGEDATCQCLKGFAGDGKLCSDIDECEMGVPVCPPASSKCINTEGGYVCRCSEGYQGDGIHCLDIDECQLGEHSCGENASCTNTEGGYTCMCAGRLSEPGLICPDSTPPPHLREDDHHYSVRNSDSECPLSHDGYCLHDGVCMYIEALDKYACNCVVGYIGERCQYRDLKWWELRHAGHGQQQKVIVVAVCVVVLVMLLLLSLWGAHYYRTQKLLSKNPKNPYEESSRDVRSRRPADTEDGMSSCPQPWFVVIKEHQDLKNGGQPVAGEDGQAADGSMQPTSWRQEPQLCGMGTEQGCWIPVSSDKGSCPQVMERSFHMPSYGTQTLEGGVEKPHSLLSANPLWQQRALDPPHQMELTQ
modifications: Pro-epidermal growth factor IRDye 700DX conjugate
JC-1 % shift (HTB-186 cells [1]): 42%
cytotoxicity by cell viability (A431 cells [2]; 24 h post irradiation): only the probe treated with irradiation induced cytotoxicity
effect on cell morphology (A431 cells [2]; irradiation 16 J/cm^2): dramatically altered with condensation of nuclei and cell dehydration
effect on cell morphology (A431 cells [2]; no irradiation (NI)): no deleterious effect on cell morphology
Caspase 3 % late apoptotic + dead cells (HTB-186 cells [3]): 46%
% Healthy (A431 cells [4]; 0.1 μM): 72%
% Necrotic (A431 cells [4]; 0.1 μM): 10%
Cells/mL (A431 cells [4]; 0.1 μM): 4.6 × 10^5 Cells/mL
Early % Apoptotic (A431 cells [4]; 0.1 μM): 8%
Late % Apoptotic (A431 cells [4]; 0.1 μM): 11%
% Healthy (A431 cells [4]; 0.25 μM): 61%
% Necrotic (A431 cells [4]; 0.25 μM): 16%
Cells/mL (A431 cells [4]; 0.25 μM): 4.8 × 10^5 Cells/mL
Early % Apoptotic (A431 cells [4]; 0.25 μM): 5%
Late % Apoptotic (A431 cells [4]; 0.25 μM): 18%
% Healthy (A431 cells [4]; 0.5 μM): 52%
% Necrotic (A431 cells [4]; 0.5 μM): 17%
Cells/mL (A431 cells [4]; 0.5 μM): 4 × 10^5 Cells/mL
Early % Apoptotic (A431 cells [4]; 0.5 μM): 6%
Late % Apoptotic (A431 cells [4]; 0.5 μM): 26%
% Healthy (A431 cells [4]; 1 μM): 52%
% Necrotic (A431 cells [4]; 1 μM): 15%
Cells/mL (A431 cells [4]; 1 μM): 4 × 10^5 Cells/mL
